Test [1] addresses GST-BAI-1 Associated Protein PDZ domain 2 (Mus musculus (Mouse)) (UniProt Q6RHR9). Nature of the test: G' assay. Note: key of the grades not given here.
Test [2] concerns the target GST-TIP1 PDZ domain 1 (Table 9 insert) (Homo sapiens (Human)) (UniProt O14907). The test can be described thus: G' assay. Note: key of the grades not given here.
Test [3] concerns the target T1, GST-KIAA0300 PDZ domain 1 (UniProt O15018).
T1 sequence (looked up): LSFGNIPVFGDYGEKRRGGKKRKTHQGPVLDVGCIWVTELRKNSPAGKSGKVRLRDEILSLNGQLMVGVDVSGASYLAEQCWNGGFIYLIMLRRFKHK
The test can be described thus: G' assay. Note: key of the grades not given here.

The target of test [4] is GST-DLG-1 PDZ domains 1 to 3 (Example 6) (Homo sapiens) (UniProt Q12959). Nature of the test: G assay competition vs 10 uM biotin-CD95 20-mer; competitor 100 uM.
Test [5] has the same target. Nature of the test: G assay competition vs 20 uM biotin-CD46 20-mer; competitor 100 uM.
The target is the same in test [6]. The test can be described thus: G assay competition vs 10 uM biotin-KV1.3 20-mer; competitor 100 uM.
The target is the same in test [7]. The test can be described thus: G assay competition vs 20 uM biotin-CLASP-2 20-mer; competitor 100 uM.
Test [8] deals with GST-p55T PDZ domain 1 (Homo sapiens (Human)) (UniProt Q9NZW5). The test can be described thus: G' assay. Note: key of the grades not given here.
The target in test [9] is T2, GST-KIAA0300 PDZ domain 2 (UniProt O15018).
T2 sequence (looked up): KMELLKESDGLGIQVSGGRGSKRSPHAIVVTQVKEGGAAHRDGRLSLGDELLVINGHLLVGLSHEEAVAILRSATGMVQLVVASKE
Nature of the test: G' assay. Note: key of the grades not given here.

Test [10] concerns the target GST-DLG-1 PDZ domains 1 to 3 (Example 6) (Homo sapiens) (UniProt Q12959). The test can be described thus: G assay competition vs 10 uM biotin-CD95 20-mer; competitor 50 uM.
For test [11] the target is unchanged. The test can be described thus: G assay competition vs 20 uM biotin-CD46 20-mer; competitor 50 uM.
For test [12] the target is unchanged. The test can be described thus: G assay competition vs 10 uM biotin-KV1.3 20-mer; competitor 50 uM.
Test [13] shares this target. The test can be described thus: G assay competition vs 20 uM biotin-CLASP-2 20-mer; competitor 50 uM.
For test [14] the target is unchanged. Nature of the test: G assay competition vs 10 uM biotin-CD95 20-mer; competitor 500 uM.
Test [15] has as its target GST-PSD95 PDZ domains 1, 2, 3 (Homo sapiens) (UniProt P78352). The description is as above.
In test [16] the target is GST-DLG-1 PDZ domains 1 to 3 (Example 6) (Homo sapiens) (UniProt Q12959). The test can be described thus: G assay competition vs 20 uM biotin-CD46 20-mer; competitor 500 uM.
The target of test [17] is GST-PSD95 PDZ domains 1, 2, 3 (Homo sapiens) (UniProt P78352). The description is as above.
For test [18], the target named is GST-DLG-1 PDZ domains 1 to 3 (Example 6) (Homo sapiens) (UniProt Q12959). Nature of the test: G assay competition vs 10 uM biotin-CD95 20-mer; competitor 1000 uM.
Test [19] has as its target GST-PSD95 PDZ domains 1, 2, 3 (Homo sapiens) (UniProt P78352). The description is as above.
The target is the same in test [20]. The test can be described thus: G assay competition vs 10 uM biotin-KV1.3 20-mer; competitor 500 uM.
Test [21] deals with GST-DLG-1 PDZ domains 1 to 3 (Example 6) (Homo sapiens) (UniProt Q12959). The test can be described thus: G assay competition vs 20 uM biotin-CD46 20-mer; competitor 1000 uM.
Test [22] has as its target GST-PSD95 PDZ domains 1, 2, 3 (Homo sapiens) (UniProt P78352). Described as above.
Test [23] shares this target. Nature of the test: G assay competition vs 10 uM biotin-KV1.3 20-mer; competitor 1000 uM.
In test [24] the target is GST-DLG-1 PDZ domains 1 to 3 (Example 6) (Homo sapiens) (UniProt Q12959). The test can be described thus: G assay competition vs 20 uM biotin-CLASP-2 20-mer; competitor 500 uM.
Test [25] has as its target GST-PSD95 PDZ domains 1, 2, 3 (Homo sapiens) (UniProt P78352). Described as above.
The target in test [26] is GST-DLG-1 PDZ domains 1 to 3 (Example 6) (Homo sapiens) (UniProt Q12959). The test can be described thus: G assay competition vs 20 uM biotin-CLASP-2 20-mer; competitor 1000 uM.
Test [27] addresses GST-PSD95 PDZ domains 1, 2, 3 (Homo sapiens) (UniProt P78352). The description is as above.

This note sets out measurements from US20050282743A1, “Molecular interactions in cells” (Arbor Vita Corporation, priority 2001, published 2005).

Sequence of GST-PSD95 PDZ domains 1, 2, 3 (Homo sapiens) (P78352 62-395): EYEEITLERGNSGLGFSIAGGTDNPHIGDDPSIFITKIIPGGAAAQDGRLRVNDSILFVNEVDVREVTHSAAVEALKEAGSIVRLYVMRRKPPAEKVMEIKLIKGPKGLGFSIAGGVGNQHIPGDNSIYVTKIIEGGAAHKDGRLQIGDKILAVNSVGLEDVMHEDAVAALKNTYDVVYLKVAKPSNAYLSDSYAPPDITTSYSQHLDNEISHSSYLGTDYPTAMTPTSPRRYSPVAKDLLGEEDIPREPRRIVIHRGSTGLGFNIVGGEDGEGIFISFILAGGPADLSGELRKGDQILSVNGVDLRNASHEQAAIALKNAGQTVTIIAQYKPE
Sequence of GST-BAI-1 Associated Protein PDZ domain 2 (Mus musculus (Mouse)) (Q6RHR9 455-558): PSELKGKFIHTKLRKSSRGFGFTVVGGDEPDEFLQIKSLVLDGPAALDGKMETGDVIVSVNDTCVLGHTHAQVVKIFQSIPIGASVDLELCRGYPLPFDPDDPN
Sequence of GST-TIP1 PDZ domain 1 (Table 9 insert) (Homo sapiens (Human)) (O14907 14-116): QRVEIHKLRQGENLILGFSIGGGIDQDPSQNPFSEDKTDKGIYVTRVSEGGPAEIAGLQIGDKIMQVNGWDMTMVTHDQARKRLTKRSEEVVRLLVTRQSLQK

In the case of HPV E6 #18 (peptide), the Classification in test [1] amounted to 5 A450 class; in test [2], 4 A450 class.
Take MINT-1 (peptide): in [3], the Classification was found to be 4 A450 class.
The same measure, in the same setting: for ephrin B2 (peptide) the value was 2 A450 class.
Consider CD46 8-mer (peptide), for which the % binding of labelled 20-mer in test [4] is 68%; in test [5], 90%; in test [6], 63%; in [7], 90%.
As for presenilin-1 (peptide), the Classification in test [8] is 1 A450 class.
Take presenilin-2 (peptide): the Classification in test [3] and in test [9] was 1 A450 class in each case.
Regarding “unlabeled 8 amino acid peptide corresponding to the C-terminus of CD95”, the % binding of labelled 20-mer in test [10] worked out at 70%; in [11] it was 110%; in test [12], 84%; in test [13], 73%.
Take MINT-2 (peptide): the figures for the Classification in [3] and in test [8] were 3 A450 class and 1 A450 class, respectively.
Consider AdenoE4 typ9 (peptide), for which, in [3], the Classification amounted to 1 A450 class.
On to CLASP-2 3-mer (peptide), for which the % binding of labelled 20-mer stood at 51% in [14]; 55% in test [15]; 72% in [16]; 75% in [17]; 46% in test [18]; 55% in test [19]. Moreover, the % binding of labelled 20-mer stood at 81% in [20]; 45% in [21]; 59% in test [22]; 50% in [23]; 61% in test [24]; 82% in test [25]. Moreover, the % binding of labelled 20-mer in [26] was determined as 59%; in test [27], 63%.
For “CSPG4 (chondroitin sulfae proteoglycan 4, melanoma-associated) (peptide)”, the Classification in [3] came to 2 A450 class.
